Reference: US20260055188A1 (SHENGHE CHINA BIOPHARMACEUTICAL, published 2026)
Where two headings read alike, the source gives them in different places.

B1: TB-G (bispecific antibody, human IgG1, kappa)
light: DIVMTQSPATLSVTPGDRVSLSCRASQSISDYLHWYQQKSHESPRLLIKYASQSISGIPSRFSGSGSGSDFTLSINSVEPEDVGVYYCQNGHSFPLTFGAGTKLELKRTVAAPSVFIFPPSDEQLKSGTASVVCLLNNFYPREAKVQWKVDNALQSGNSQESVTEQDSKDSTYSLSSTLTLSKADYEKHKVYACEVTHQGLSSPVTKSFNRGECGGGGSGGGGSEVQLVESGGGLVQPGGSLRLSCAASGSRLDYYAVAWFRQAPGKEREEVSCITYSGGSTNYAESVKGRFTISRDNSKNTLYLQMNSLRAEDTAVYYCTTEPYGSSCPLSGYDTWGQGTLVTVSS
heavy: not shown
notes: also called antibody TB-G
B2: TB-H (bispecific antibody, human IgG1, kappa)
light: EVQLVESGGGLVQPGGSLRLSCAASGSRLDYYAVAWFRQAPGKEREEVSCITYSGGSTNYAESVKGRFTISRDNSKNTLYLQMNSLRAEDTAVYYCTTEPYGSSCPLSGYDTWGQGTLVTVSSGGGGSGGGGSGGGGSDIVMTQSPATLSVTPGDRVSLSCRASQSISDYLHWYQQKSHESPRLLIKYASQSISGIPSRFSGSGSGSDFTLSINSVEPEDVGVYYCQNGHSFPLTFGAGTKLELKRTVAAPSVFIFPPSDEQLKSGTASVVCLLNNFYPREAKVQWKVDNALQSGNSQESVTEQDSKDSTYSLSSTLTLSKADYEKHKVYACEVTHQGLSSPVTKSFNRGEC
heavy: not shown
notes: also called antibody TB-H
B3: Positive Control (antibody, V domains shown)
VH: QVQLQQSGAELVKPGASVKLSCKASGYTFTNYDINWVRQRPEQGLEWIGWIFPGDGSTQYNEKFKGKATLTTDTSSSTAYMQLSRLTSEDSAVYFCARQTTATWFAYWGQGTLVTVSA
VL: DIVMTQSPATLSVTPGDRVSLSCRASQSISDYLHWYQQKSHESPRLLIKYASQSISGIPSRFSGSGSGSDFTLSINSVEPEDVGVYYCQNGHSFPLTFGAGTKLELK
B4: TB-F (bispecific antibody, human IgG1, kappa)
light: EVQLVQSGAEVKKPGATVKISCKVSGYSITDYLLHWVQQAPGKCLEWMGWIDPEDAKTKYGQKFQSRVTITADTSTDTAYMELSSLRSEDTAVYYCAANSGTGTMDAWGQGTLVTVSSGGGGSGGGGSGGGGSDIVMTQSPATLSVSPGERATLSCKASQNVGSNVDWYQQKPGQSPRVLIYKASIRYTGIPARFSGSGSGTEFTLTISILQSEDFAVYFCMQSKSYPITFGCGTKLEIKGGGGSGGGGSGGGGSDIVMTQSPATLSVTPGDRVSLSCRASQSISDYLHWYQQKSHESPRLLIKYASQSISGIPSRFSGSGSGSDFTLSINSVEPEDVGVYYCQNGHSFPLTFGAGTKLELKRTVAAPSVFIFPPSDEQLKSGTASVVCLLNNFYPREAKVQWKVDNALQSGNSQESVTEQDSKDSTYSLSSTLTLSKADYEKHKVYACEVTHQGLSSPVTKSFNRGEC
heavy: not shown
notes: also called antibody TB-F
B5: TB-C2 (bispecific antibody, human IgG4 S228P, kappa)
light: DIVMTQSPATLSVTPGDRVSLSCRASQSISDYLHWYQQKSHESPRLLIKYASQSISGIPSRFSGSGSGSDFTLSINSVEPEDVGVYYCQNGHSFPLTFGAGTKLELKRTVAAPSVFIFPPSDEQLKSGTASVVCLLNNFYPREAKVQWKVDNALQSGNSQESVTEQDSKDSTYSLSSTLTLSKADYEKHKVYACEVTHQGLSSPVTKSFNRGEC
heavy: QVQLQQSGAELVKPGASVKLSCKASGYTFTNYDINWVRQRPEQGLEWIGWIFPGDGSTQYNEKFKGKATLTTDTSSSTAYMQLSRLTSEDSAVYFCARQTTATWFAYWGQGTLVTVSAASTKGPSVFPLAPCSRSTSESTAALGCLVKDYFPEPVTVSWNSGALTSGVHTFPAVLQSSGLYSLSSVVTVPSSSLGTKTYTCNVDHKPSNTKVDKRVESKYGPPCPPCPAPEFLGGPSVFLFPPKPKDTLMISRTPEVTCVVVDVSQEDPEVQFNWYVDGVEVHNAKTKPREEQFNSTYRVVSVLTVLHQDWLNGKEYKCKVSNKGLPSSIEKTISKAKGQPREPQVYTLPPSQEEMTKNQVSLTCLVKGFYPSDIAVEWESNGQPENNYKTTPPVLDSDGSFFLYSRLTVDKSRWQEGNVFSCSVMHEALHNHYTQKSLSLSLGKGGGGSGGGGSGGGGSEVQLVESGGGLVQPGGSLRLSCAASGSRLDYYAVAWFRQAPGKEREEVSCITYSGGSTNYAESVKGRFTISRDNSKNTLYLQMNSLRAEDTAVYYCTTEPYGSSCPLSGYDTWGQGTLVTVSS
notes: also called antibody TB-C2
B6: TB-D2 (bispecific antibody, human IgG4 S228P, kappa)
light: B5 light
heavy: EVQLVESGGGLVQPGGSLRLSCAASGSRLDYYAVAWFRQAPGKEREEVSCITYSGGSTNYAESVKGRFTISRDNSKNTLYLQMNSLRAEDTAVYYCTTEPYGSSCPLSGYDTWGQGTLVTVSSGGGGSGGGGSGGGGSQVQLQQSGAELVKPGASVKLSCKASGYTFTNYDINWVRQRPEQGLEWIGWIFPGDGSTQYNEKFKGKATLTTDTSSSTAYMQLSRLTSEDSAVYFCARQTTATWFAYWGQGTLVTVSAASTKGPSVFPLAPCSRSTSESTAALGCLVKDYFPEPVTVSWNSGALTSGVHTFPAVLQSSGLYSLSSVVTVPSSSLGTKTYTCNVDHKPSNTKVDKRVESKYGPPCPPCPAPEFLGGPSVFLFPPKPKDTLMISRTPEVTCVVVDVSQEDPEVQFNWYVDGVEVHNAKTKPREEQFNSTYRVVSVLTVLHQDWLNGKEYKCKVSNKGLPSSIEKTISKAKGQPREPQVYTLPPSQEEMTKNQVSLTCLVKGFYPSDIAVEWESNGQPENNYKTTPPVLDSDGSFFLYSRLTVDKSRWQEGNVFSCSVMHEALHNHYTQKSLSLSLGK
notes: also called antibody TB-D2

Legend:
[1] = target: T1, Human-TNFR2-His (manufacturer: SINO, CAT: 10417-H08H) (human, UniProt P20333 23-257); assay: bridging ELISA: Human-B7H3 Fc coated (0.5 µg/mL), antibody titrated, then Human-TNFR2-His (0.5 µg/mL), HRP-labeled anti-His detection, OD450 (Example 4); the signal needs both proteins bound at once
T1 construct: Bought protein; also called human TNFR2 protein; TNFR2 protein; not shown: His tag
T1 sequence (looked up): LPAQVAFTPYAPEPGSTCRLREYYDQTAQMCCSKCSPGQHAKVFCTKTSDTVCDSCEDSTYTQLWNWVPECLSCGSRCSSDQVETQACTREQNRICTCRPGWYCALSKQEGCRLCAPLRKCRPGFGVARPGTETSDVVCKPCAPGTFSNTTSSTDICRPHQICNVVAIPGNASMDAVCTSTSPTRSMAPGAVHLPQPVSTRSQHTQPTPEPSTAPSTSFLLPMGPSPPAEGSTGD
Procedure: Human-B7H3 Fc (manufacturer: Acro, CAT: B73-H5253, LOT: 2053b-201XF1-UD) was diluted to 0.5 μg/mL with a coating solution (1×PBS, pH7.4) and coated into a 96-well ELISA plate at 100 μL/well at 4° C. overnight. The coating solution was poured off. Each well was washed with 1×PBST at 300 μL, washed 4 times with a plate washer, and patted dry on a flat paper. It was blocked with 3% skim milk powder at 300 μL/well, and incubated at 37° C. for 1 h. The blocking solution was poured off, washed 4 times with a plate washer, and patted dry on a flat paper. […] Starting at 300 nM, which was used as the initial concentration for 3-fold dilution, a total of 8 gradients were diluted, and a blank well was set up, and only diluent was added. It was incubated at 37° C. for 1 h at 100 μL/well. The liquid in the well was discarded, washed 4 times with a plate washer, and patted dry on a flat paper. Human-TNFR2-His (manufacturer: Sino, CAT: 10417-H08H, LOT: LC12SE2902) was diluted to 0.5 μg/mL, 100 μL was added to each well, and incubated at room temperature for 1 h. The plate was washed 3 times with PBST, and then the HRP-labeled his antibody was diluted with sample diluent at 1:10000, 100 μL was added to each well, and incubated at room temperature for 1 h. It was washed 6 times with a plate washer, and patted dry on a flat paper. TMB color developing solution was added at 100 μL/well, and wrapped with aluminum foil. Color development was performed at 37° C. in the dark for 8 min. Termination solution 1M HCl was added to terminate the color development reaction at 100 μL/well. Readings were taken at 450 nm on an ELISA reader.

[2] = target: T2, Human-B7H3 His (manufacturer: Acro, CAT: TB73-H52E2) (human, UniProt Q5ZPR3-2 29-245); assay: ELISA: Human-B7H3 His coated (0.3 µg/mL), antibody titrated, goat anti-human IgG Fc detection, OD450 (Example 3)
T2 construct: also called human B7H3 protein; B7H3 protein; not shown: His tag
T2 sequence (looked up): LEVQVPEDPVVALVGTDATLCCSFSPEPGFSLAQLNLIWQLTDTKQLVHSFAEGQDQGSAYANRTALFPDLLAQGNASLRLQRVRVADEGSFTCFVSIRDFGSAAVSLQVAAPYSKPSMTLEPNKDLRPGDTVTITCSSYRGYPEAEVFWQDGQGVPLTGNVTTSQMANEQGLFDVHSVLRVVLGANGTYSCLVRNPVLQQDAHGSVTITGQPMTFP
Procedure: (§1) Human-B7H3 His (manufacturer: Acro, CAT: TB73-H52E2, LOT: 2052-21AXF1-YS) was diluted to 0.3 μg/mL with a coating solution (1×PBS, pH7.4), and coated into a 96-well ELISA plate at 100 μL/well overnight at 4° C. The coating solution was poured off. Each well was washed with 1×PBST at 300 μL, washed 4 times with a plate washer, and patted dry on a flat paper. It was blocked with 3% skim milk powder at 300 μL/well, and incubated at 37° C. for 1 h. The blocking solution was poured off, washed 4 times with a plate washer, and patted dry on a flat paper. Negative control and positive control were set up. […] The variable region of the antibody sequence of the positive control consists of SEQ ID NO: 1 and SEQ ID NO: 5, with the constant region of human IgG1 added (SEQ ID NO: 85 and SEQ ID NO: 86). The positive control and antibody were diluted to 10 μg/mL with 3% skim milk powder as the starting concentration, and then diluted by 3-fold gradient (11 gradients in total). A blank well was set up and only the diluent was added. It was incubated at 37° C. for 1 h at 100 μL/well. The liquid in the well was discarded, washed 4 times with a plate washer, and patted dry on a flat paper. Goat anti-human IgG Fc was diluted with 3% skim milk powder at 1:20000, and incubated at 37° C. for 1 h at 100 μL/well. It was washed 6 times with a plate washer, and patted dry on a flat paper. TMB color developing solution was added at 100 μL/well, and wrapped with aluminum foil. Color development was performed at 37° C. in the dark for 8 min. Termination solution 1M HCl was added to terminate the color development reaction at 100 μL/well. Readings were taken at 450 nm on an ELISA reader.

[3] = target: T2, Human-B7H3 His (manufacturer: Acro, …); assay: as above; remark: listed apart in the source
Procedure: as §1

[4] = target: T1, Human-TNFR2-His (manufacturer: SINO, …); assay: ELISA: Human-TNFR2-His coated (0.3 µg/mL), antibody titrated, goat anti-human IgG Fc detection, OD450 (Example 2)
Procedure: Human-TNFR2-His (manufacturer: SINO, CAT: 10417-H08H, LOT: LC15NO0412) was diluted to 0.3 μg/mL with a coating solution (1×PBS, pH7.4), and coated into a 96-well ELISA plate at 100 μL/well overnight at 4° C. The coating solution was poured off. Each well was washed with 1×PBST at 300 μL, washed 4 times with a plate washer, and patted dry on a flat paper. It was blocked with 3% skim milk powder at 300 μL/well, and incubated at 37° C. for 1 h. The blocking solution was poured off, washed 4 times with a plate washer, and patted dry on a flat paper. Negative control and positive control were set up. […] The positive control and antibody were diluted to 10 μg/mL with 3% skim milk powder as the starting concentration, and then diluted by 3-fold gradient (11 gradients in total). A blank well was set up and only the diluent was added. It was incubated at 37° C. for 1 h at 100 μL/well. The liquid in the well was discarded, washed 4 times with a plate washer, and patted dry on a flat paper. Goat anti-human IgG Fc was diluted with 3% skim milk powder at 1:20000, and incubated at 37° C. for 1 h at 100 μL/well. It was washed 6 times with a plate washer, and patted dry on a flat paper. TMB color developing solution was added at 100 μL/well, and wrapped with aluminum foil. Color development was performed at 37° C. in the dark for 8 min. Termination solution 1M HCl was added to terminate the color development reaction at 100 μL/well. Readings were taken at 450 nm on an ELISA reader.

| Binder | binding result [1] | EC50 (read off the curve) [2] | EC50 (read off the curve) [3] | binding result [4] |
| --- | --- | --- | --- | --- |
| B1 | binds |  |  |  |
| B2 | binds | ~0.2 µg/mL |  |  |
| B3 |  | ~0.3 nM | ~0.2 nM |  |
| B4 | binds | ~0.2 µg/mL |  |  |
| B5 |  |  | ~2 nM | binds |
| B6 |  |  | ~1 nM | binds |
